Experimental data published in patent US10704030B2, “P450-BM3 variants with improved activity” (Codexis, Inc., priority 2015, dated 2020).
Numbering of substitutions follows the chain as printed. Names and notes keep the numbering of the source.

B1: SEQ ID NO: 8: P450-BM3 parental backbone from the commercially available MCYP panel (MCYP-0343; Codexis) (protein)
chain: MTIKEMPQPKTFGELKNLPLLNTDKPVQALMKIADELGEIFKFEAPGRVTRYLSSQRLIKEACDESRFDKNLSQALKFARDFAGDGLFTSWTHEKNWKKAHNILLPSFSQQAMKGYHAMMVDIAVQLVQKWERLNADEYIEVPEDMTRLTLDTIGLCGFNYRFNSFYRDQPHPFIISMIRALDEVMNKLQRANPDDPAYDENKRQFQEDIKVMNDLVDKIIADRKASGEQSDDLLTQMLNGKDPETGEPLDDGNISYQIITFLIAGHETTSGLLSFALYFLVKNPHVLQKVAEEATRVLVDPVPSYKQVKQLKYVGMVLNEALRLWPTAPAFSLYAKEDTVLGGEYPLEKGDEVMVLIPQLHRDKTIWGDDVEEFRPERFENPSAIPQHAFKPFGNGQRACIGQQFALHEATLVLGMMLKHFDFEDHTNYELDIKETLTLKPEGFVVKAKSKKIPLGGIPSPSTEQSAKKVRKKAENAHNTPLLVLYGSNMGTAEGTARDLADIAMSKGFAPQVATLDSHAGNLPREGAVLIVTASYNGHPPDNAKQFVDWLDQASADEVKGVRYSVFGCGDKNWATTYQKVPAFIDETLAAKGAENIADRGEADASDDFEGTYEEWREHMWSDVAAYFNLDIENSEDNKSTLSLQFVDSAADMPLAKMHGAFSTNVVASKELQQPGSARSTRHLEIELPKEASYQEGDHLGVIPRNYEGIVNRVTARFGLDASQQIRLEAEEEKLAHLPLAKTVSVEELLQYVELQDPVTRTQLRAMAAKTVCPPHKVELEALLEKQAYKEQVLAKRLTMLELLEKYPACEMKFSEFIALLPSIRPRYYSISSSPRVDEKQASITVSVVSGEAWSGYGEYKGIASNYLAELQEGDTITCFISTPQSEFTLPKDPETPLIMVGPGTGVAPFRGFVQARKQLKEQGQSLGEAHLYFGCRSPHEDYLYQEELENAQSEGIITLHTAFSRMPNQPKTYVQHVMEQDGKKLIELLDQGAHFYICGDGSQMAPAVEATLMKSYADVHQVSEADARLWLQQLEEKGRYAKDVWAG
modifications: P450_BM3
B2: Variant 6: P450-BM3 variant of SEQ ID NO: 2: V51S; D118R; L219Y; K236H; P351T; S353T; N579T; T582A; E624D; A632S; D727S; Q931K (protein)
chain: MLMKQASAIPQPKTYGPLKNLPHLEKEQLSQSLWRIADELGPIFRFDFPGSSSVFVSGHNLVAEVCDEERFDKSIEGALEKVRAFSGDGLATSWTHEPNWRKAHNILMPTFSQRAMKRYHEKMVDIATQLIQKWSRLNPNEEIDVADDMTRLTLDTIGLCGFNYRFNSFYRDQPHPFITSMVRALDEAMNKLQRANPDDPAYDENKRQFQEDIKVMNDYVDSIIAERRANGDQDEHDLLARMLNVEDPETGEKLDDENIRFQIITFLIAGHETTSGLLSFAIYCLLTHPEKLKKAQEEADRVLTDDTPEYKQIQQLKYIRMVLNETLRLYPTAPAFSLYAKEDTVLGGEYTITKGQPVTVLIPKLHRDQNAWGPDAEDFRPERFEDPSSIPHHAYKPFGNGQRACIGMQFALQEATMVLGLVLKHFELINHTGYELKIKEALTIKPDDFKITVKPRKTAAINVQRKEQAEQSAKKVRKKAENAHNTPLLVLYGSNMGTAEGTARDLADIAMSKGFAPQVATLDSHAGNLPREGAVLIVTASYNGHPPDNAKQFVDWLDQASADEVKGVRYSVFGCGDKTWAATYQKVPAFIDETLAAKGAENIADRGEADASDDFEGTYEEWRDHMWSDVASYFNLDIENSEDNKSTLSLQFVDSAADMPLAKMHGAFSTNVVASKELQQPGSARSTRHLEIELPKEASYQEGDHLGVIPRNYEGIVNRVTARFGLSASQQIRLEAEEEKLAHLPLAKTVSVEELLQYVELQDPVTRTQLRAMAAKTVCPPHKVELEALLEKQAYKEQVLAKRLTMLELLEKYPACEMKFSEFIALLPSIRPRYYSISSSPRVDEKQASITVSVVSGEAWSGYGEYKGIASNYLAELQEGDTITCFISTPQSEFTLPKDPETPLIMVGPGTGVAPFRGFVQARKQLKEQGKSLGEAHLYFGCRSPHEDYLYQEELENAQSEGIITLHTAFSRMPNQPKTYVQHVMEQDGKKLIELLDQGAHFYICGDGSQMAPAVEATLMKSYADVHQVSEADARLWLQQLEEKGRYAKDVWAG
modifications: P450_BM3
notes: D118R; L219Y; K236H; P351T; S353T; N579T; T582A; E624D; A632S; D727S; Q931K
B3: Variant 8: P450-BM3 variant of SEQ ID NO: 2: D118R; L219Y; K236H; S353T; N579T; T582A; E624D; D727S (protein)
chain: B2 chain with S51V, T351P, S632A, K931Q
modifications: P450_BM3
notes: L219Y; K236H; S353T; N579T; T582A; E624D; D727S
B4: Variant 7: P450-BM3 variant of SEQ ID NO: 2: V51S; D118R; T179V; L219Y; P351T; N579T; T582A; E624D; D727S (protein)
chain: B2 chain with T179V, H236K, T353S, S632A, K931Q
modifications: P450_BM3
notes: D118R; T179V; L219Y; P351T; N579T; T582A; E624D; D727S

Test: Validation of generalist properties: oxidation of gefitinib by lyophilized P450-BM3 variant, UPLC-MS
Format: biochemical
Conditions: [Gefitinib] = 1 mM
Procedure: (§1) For the production of lyophilized protein powders, LB agar plates supplemented with chloramphenicol (30 μg/mL) were streaked with E. coli containing a desired B. megaterium P450-BM3 variant in an IPTG-inducible vector. The plates were grown at 37° C. for 16 hrs before single clones were selected to inoculate a 15 mL Falcon™ tube (Fisher) containing TB media (3 mL) supplemented with chloramphenicol (30 μg/mL). The tube was shaken at 200 rpm, 30° C., and 85% humidity for 20-24 h to grow the cultures to saturation. Then, 2.5 mL of the overnight culture was used to inoculate sterile 1 L flasks containing TB medium (250 mL) supplemented with chloramphenicol (30 μg/mL), trace element solution (as described above), and 0.05 g/L ammonium iron (III) citrate. After being shaken at 250 rpm, 30° C., and 85% humidity to an OD600 of 0.8-1.2, P450 expression was induced by addition of IPTG (500 uM) and the heme precursor 5-aminolevulinic acid (5-ALA) to a final concentration of 500 uM. The cultures were grown for additional 20-24 hours and centrifuged in pre-weighed 250 mL centrifuge bottles for 20 minutes at 4000 rpm, 4° C. The supernatants were discarded, and the centrifuge bottles containing cell pellets were weighed. The pellets were resuspended in 50 mM potassium phosphate buffer with 2 mM DTT, pH 8.0 (5 mL of buffer per gram of cell pellet). The cells were lysed using a microfluidizer homogenizer, and the suspensions of cells and lysate were collected in sterile 50 mL centrifuge tubes. The samples were centrifuged for 30 minutes at 10,000 rpm, 4° C. The clarified lysate was collected into a plastic petri plate and frozen at −80° C. prior to lyophilization. The enzyme-containing lysates were lyophilized using standard methods known in the art.
(§2) Enzyme stocks (˜12 μM) were prepared by dissolving ˜20 mg of each enzyme in 100 mM potassium phosphate buffer, pH 8.0 (1 mL). The concentration of each enzyme stock solution was determined by the UV-visible absorption spectroscopy (after centrifugation to remove particulates) and diluted to standardize at 12 μM heme protein. Substrate solutions were prepared by dissolving each substrate in DMSO to reach a final concentration of 20 mM or 40 mM. Reaction mix (235 μL) followed by enzyme solution (50 μL) was added to the plates. The substrate stock solution was added to the enzyme solutions (15 μL at the two different concentrations). Each reaction contained 100 mM potassium phosphate, 1.0 mM NADP+, 25 mM glucose, 0.5 mg/mL glucose dehydrogenase, 5% DMSO and substrate at 1 or 2 mM. Loratadine, imatinib, and gefitinib (See, FIG. 1) were selected as substrates in addition to diclofenac to validate improved BM3 variants. The reactions were shaken at 450 rpm at 30° C. over 24 hours. All reactions were diluted with acetonitrile to a final concentration of 0.5 mM substrate. The plates were then centrifuged at 3,000 g for 1 hour at 20° C. The supernatant was diluted 1:1 with acetonitrile, filtered using a 0.4 micron filter, and analyzed by UPLC-MS.
(§3) For UPLC-MS analysis, the quenched and filtered reactions were transferred to 96-well HTP plates for analysis by UPLC on a Waters Acquity H-class system equipped with an autosampler. 1 uL of quenched sample was injected onto an Acquity UPLC HSS T3 column, 100 Å, (1.8 um; 2.1×100 mm). The column was eluted at a constant flow rate of 0.6 mL/min; conditions with solvent A (0.05% trifluoroacetic acid v/v, in H2O) and solvent B (0.05% trifluoroacetic acid v/v, in acetonitrile) used to elute the products of the reaction were: 0-2 min, A/B 95:5; 2-2.9 min, A/B 5:95; 2.9-3 min, A/B 95:5; 3-3.5 min, A/B 95:5. Column eluent was monitored by PDA (200-600 nm) prior to MS analysis in positive ESI mode (desolvation temperature 350° C., 3.25 kV spray voltage, cone voltage 25V). The column eluent was diverted to waste for the first 0.7 minutes of the run. For the remainder of the LC run, both MS (m/z 95-600 scan range) and MS/MS were collected. […]

Molecule	% Conv.
B1	+ (0-5.00)
B2	+ (0-5.00)
B3	+ (0-5.00)
B4	+ (0-5.00)

Same assay, conditions: [Gefitinib] = 1 mM; TON = [substrate]*% conversion/[P450]

Molecule	TON
B1	‡ (0-1000)
B2	‡ (0-1000)
B3	‡ (0-1000)
B4	‡ (0-1000)

Same assay, conditions: [Gefitinib] = 1 mM; fold improvement over parent MCYP-1.2-A05

Molecule	FIOPC (A05)
B2	* (0.0-3.0)
B3	* (0.0-3.0)
B4	* (0.0-3.0)

Test: Validation of generalist properties: oxidation of diclofenac by lyophilized P450-BM3 variant, UPLC-MS
Format: biochemical
Conditions: [Diclofenac] = 1 mM
Procedure: as §1, §2, §3

Molecule	% Conv.
B1	++ (5.01-10.00)
B2	++ (5.01-10.00)
B3	+ (0-5.00)
B4	+ (0-5.00)

Same assay, conditions: [Diclofenac] = 1 mM; TON = [substrate]*% conversion/[P450]

Molecule	TON
B1	‡‡ (1001-5000)
B2	‡‡ (1001-5000)
B3	‡‡ (1001-5000)
B4	‡‡ (1001-5000)

Same assay, conditions: [Diclofenac] = 1 mM; fold improvement over parent MCYP-1.2-A05

Molecule	FIOPC (A05)
B2	**** (10.01-15.00)
B3	**** (10.01-15.00)
B4	**** (10.01-15.00)

Test: Validation of generalist properties: oxidation of loratadine by lyophilized P450-BM3 variant, UPLC-MS
Format: biochemical
Conditions: [Loratadine] = 1 mM
Procedure: as §1, §2, §3

Molecule	% Conv.
B1	++ (5.01-10.00)
B2	++ (5.01-10.00)
B3	++ (5.01-10.00)
B4	++ (5.01-10.00)

Same assay, conditions: [Loratadine] = 1 mM; TON = [substrate]*% conversion/[P450]

Molecule	TON
B1	‡‡ (1001-5000)
B2	‡‡ (1001-5000)
B3	‡‡ (1001-5000)
B4	‡‡ (1001-5000)

Same assay, conditions: [Loratadine] = 1 mM; fold improvement over parent MCYP-1.2-A05

Molecule	FIOPC (A05)
B2	**** (10.01-15.00)
B3	**** (10.01-15.00)
B4	**** (10.01-15.00)

Test: Validation of generalist properties: oxidation of imatinib by lyophilized P450-BM3 variant, UPLC-MS
Format: biochemical
Conditions: [Imatinib] = 1 mM
Procedure: as §1, §2, §3

Molecule	% Conv.
B1	++++ (15.01-20.00)
B2	++++ (15.01-20.00)
B3	++++ (15.01-20.00)
B4	++ (5.01-10.00)

Same assay, conditions: [Imatinib] = 1 mM; TON = [substrate]*% conversion/[P450]

Molecule	TON
B1	‡‡‡‡ (10000-50000)
B2	‡‡‡‡ (10000-50000)
B3	‡‡‡ (5001-10000)
B4	‡‡‡‡ (10000-50000)

Same assay, conditions: [Imatinib] = 1 mM; fold improvement over parent MCYP-1.2-A05

Molecule	FIOPC (A05)
B2	* (0.0-3.0)
B3	* (0.0-3.0)
B4	** (3.01-5.0)
